The values below come from US20260166128A1, “HUMAN AMYLIN ANALOG, AND DERIVATIVE THEREOF AND USE THEREOF” (priority 2022, published 2026).

Numbered stars: 1 amine (or outer) side, 2 acyl side, 3 side chain; on linkers, the order of the positions; unused ones are H or OH. Bridge positions count the residues as written; N and C are the ends. Square brackets hold non-standard residues; d marks the D form. Primed or numbered codes have the meaning given here. Side chains are listed from the residue outwards. Peptide text beside a SMILES is read from it. * marks the point of attachment. C20 diacid = O=C(O)CCCCCCCCCCCCCCCCCCC(=O)*; C18 diacid = O=C(O)CCCCCCCCCCCCCCCCC(=O)*; X1 = N[C@@H]1CCN([*:1])[C@@H]1C(=O)[*:2]; C16 diacid = O=C(O)CCCCCCCCCCCCCCC(=O)*; γGlu = O=C(O)[C@H](CCC(=O)[*:2])N[*:1]; C14 diacid = O=C(O)CCCCCCCCCCCCC(=O)*; C12 diacid = O=C(O)CCCCCCCCCCC(=O)*; HOOC(CH2)8CO = O=C(O)CCCCCCCCC(=O)*; Trx′ = not defined here

This data set in a line: Freeze-thaw stability of derivatives (freeze-thaw yield by liquid chromatography). Format: physicochemical. Conditions: for Dissolution property: appearance after dissolution at 0.2 mg/ml in 20 mM phosphate buffer solution (PB) (pH 7.0); for Freeze storage property: appearance after overnight storage at −20° C. and thawing to room temperature, 0.2 mg/ml in 20 mM PB (pH 7.0); for Freeze storage yield: concentration of polypeptide after freezing and thawing / concentration before, by liquid chromatography, −20° C. overnight. The protocol:
The freeze-dried powder of the polypeptide analog derivative prepared in Example 1 was mixed with a buffer solution according to a mass-volume ratio of 0.2 mg/ml, the polypeptide was dissolved with 20 mM phosphate buffer solution (PB) (pH 7.0), the sample was stored at −20° C. for overnight storage, and then the sample was taken out to be restored to room temperature for thawing. During the experiment, property changes of the polypeptide after dissolution and freezing and thawing were observed and recorded respectively, and concentrations of the polypeptide before and after the freezing and thawing were detected by the following liquid chromatography method: Materials and equipment: high-performance liquid chromatographic instrument (Agilent 1200), ultrapure water (18.2 MΩ self-manufactured ultrapure water), acetonitrile (HPLC grade), and trifluoroacetic acid (HPLC grade); and reversed-phase chromatographic column: […] A sample to be tested was centrifuged at 10,000 rpm and 4° C. for 3 minutes, and a supernatant was taken and added into a liquid-phase sample injection bottle. […] A freeze-thaw yield was calculated by the following formula: freeze-thaw yield=concentration of polypeptide after the freezing and thawing/concentration of polypeptide before the freezing and thawing.

As for `CC[C@H](C)[C@H](NC(=O)[C@@H]1CCCN1C(=O)[C@H](CCCCNC(=O)CC[C@H](NC(=O)CCCCCCCCCCCCCCCCCCC(=O)O)C(=O)O)NC(=O)[C@H](CC(C)C)NC(=O)[C@H](CC(N)=O)NC(=O)[C@H](CC(N)=O)NC(=O)[C@H](CO)NC(=O)[C@H](CO)NC(=O)[C@H](Cc1c[nH]cn1)NC(=O)[C@H](CCCNC(=N)N)NC(=O)[C@H](CC(C)C)NC(=O)[C@H](Cc1ccccc1)NC(=O)[C@H](CC(=O)O)NC(=O)[C@H](C)NC(=O)[C@H](CC(C)C)NC(=O)[C@H](CCCNC(=N)N)NC(=O)[C@H](CCC(N)=O)NC(=O)[C@@H](NC(=O)[C@H](C)NC(=O)[C@@H]1CSSC[C@H](NC(=O)[C@@H](N)CCCNC(=N)N)C(=O)N[C@@H](CC(N)=O)C(=O)N[C@@H]([C@@H](C)O)C(=O)N[C@@H](C)C(=O)N[C@@H]([C@@H](C)O)C(=O)N1)[C@@H](C)O)C(=O)N[C@@H](CC(C)C)C(=O)N1CCC[C@H]1C(=O)N1CCC[C@H]1C(=O)N[C@H](C(=O)N[C@@H](CC(N)=O)C(=O)N[C@H](C(=O)NCC(=O)N[C@@H](CO)C(=O)N[C@@H](CC(N)=O)C(=O)N[C@H](C(=O)N1CCC[C@H]1C(N)=O)[C@@H](C)O)C(C)C)[C@@H](C)O` [PD042] (H-RCNTATCATQRLADFLRHSSNNLK([γGlu-C20 diacid])PILPPTNVGSNTP-NH2; disulfide 2-7 (inferred); N-terminus assumed), the Dissolution property result is reported as “Clear”, the Freeze storage property entry was “Clear” and the Freeze storage yield came out at 95.19%.

As for “PD148: KCNTATCATQRLADFLRHSSNNLKPILPPTNVGSNT-trans-Hyp-NH2; N-terminal, 1K-ϵ; γGlu + C10 diacid ({HOOC(CH2)8CO-γGlu}-K([γGlu-HOOC(CH2)8CO])CNTATCATQRLADFLRHSSNNLKPILPPTNVGSNT-{trans‑Hyp-NH2}; disulfide 2-7 (inferred))”, the Dissolution property result is given as “Clear”, the Freeze storage property entry is on record as “Clear” and the Freeze storage yield is on record as 103.34%.

In the case of “PD137: KCNTATCATQRLADFLRHSSNNLGPILPPTNVGSNT-trans-Hyp-NH2; N-terminal, 1K-ϵ; γGlu + C14 diacid ({C14 diacid-γGlu}-K([γGlu-C14 diacid])CNTATCATQRLADFLRHSSNNLGPILPPTNVGSNT-{trans‑Hyp-NH2}; disulfide 2-7 (inferred))”, the Dissolution property result was “Clear”, the Freeze storage property entry is on record as “Clear” and the Freeze storage yield is given as 102.20%.

“PD139: KCNTATCATQRLADFLRHSSNNLGPILPPTNVGSNT-trans-Hyp-NH2; N-terminal, 1K-ϵ; γGlu + C18 diacid ({C18 diacid-γGlu}-K([γGlu-C18 diacid])CNTATCATQRLADFLRHSSNNLGPILPPTNVGSNT-{trans‑Hyp-NH2}; disulfide 2-7 (inferred))”: the Dissolution property result is “Clear”, the Freeze storage property entry is “Clear” and the Freeze storage yield is reported as 104.78%.

In the case of `CC[C@H](C)[C@H](NC(=O)[C@@H]1CCCN1C(=O)[C@H](CCCCNC(=O)CC[C@H](NC(=O)CCCCCCCCCCCCCCCCCCC(=O)O)C(=O)O)NC(=O)[C@H](CC(C)C)NC(=O)[C@H](CC(N)=O)NC(=O)[C@H](CC(N)=O)NC(=O)[C@H](CO)NC(=O)[C@H](CO)NC(=O)[C@H](Cc1c[nH]cn1)NC(=O)[C@H](CCCNC(=N)N)NC(=O)[C@H](CC(C)C)NC(=O)[C@H](Cc1ccccc1)NC(=O)[C@H](CC(=O)O)NC(=O)[C@H](C)NC(=O)[C@H](CC(C)C)NC(=O)[C@H](CCCNC(=N)N)NC(=O)[C@H](CCC(N)=O)NC(=O)[C@@H](NC(=O)[C@H](C)NC(=O)[C@@H]1CSSC[C@H](NC(=O)[C@@H](N)CCCNC(=N)N)C(=O)N[C@@H](CC(N)=O)C(=O)N[C@@H]([C@@H](C)O)C(=O)N[C@@H](C)C(=O)N[C@@H]([C@@H](C)O)C(=O)N1)[C@@H](C)O)C(=O)N[C@@H](CC(C)C)C(=O)N1CCC[C@H]1C(=O)N1CCC[C@H]1C(=O)N[C@H](C(=O)N[C@@H](CC(N)=O)C(=O)N[C@H](C(=O)NCC(=O)N[C@@H](CO)C(=O)N[C@@H](CC(N)=O)C(=O)N[C@H](C(=O)N1CC[C@@H](N)[C@H]1C(N)=O)[C@@H](C)O)C(C)C)[C@@H](C)O` [PD062] (H-RCNTATCATQRLADFLRHSSNNLK([γGlu-C20 diacid])PILPPTNVGSNT[X1]-NH2; disulfide 2-7; N-terminus assumed), the Dissolution property result was “Clear”, the Freeze storage property entry is recorded as “Clear” and the Freeze storage yield is reported as 102.63%.

In the case of “PD152: KCNTATCATQRLADFLRHSSNNLKPILPPTNVGSNT-trans-Hyp-NH2; N-terminal, 1K-ϵ; γGlu + C18 diacid ({C18 diacid-γGlu}-K([γGlu-C18 diacid])CNTATCATQRLADFLRHSSNNLKPILPPTNVGSNT-{trans‑Hyp-NH2}; disulfide 2-7 (inferred))”, the Dissolution property entry is on record as “Clear”, the Freeze storage property entry is “Clear” and the Freeze storage yield turned out to be 97.96%.

On to “PD136: KCNTATCATQRLADFLRHSSNNLGPILPPTNVGSNT-trans-Hyp-NH2; N-terminal, 1K-ϵ; γGlu + C12 diacid ({C12 diacid-γGlu}-K([γGlu-C12 diacid])CNTATCATQRLADFLRHSSNNLGPILPPTNVGSNT-{trans‑Hyp-NH2}; disulfide 2-7 (inferred))”, for which the Dissolution property entry is recorded as “Clear”, the Freeze storage property entry is listed as “Clear” and the Freeze storage yield turned out to be 108.07%.

Turning to “PD149: KCNTATCATQRLADFLRHSSNNLKPILPPTNVGSNT-trans-Hyp-NH2; N-terminal, 1K-ϵ; γGlu + C12 diacid ({C12 diacid-γGlu}-K([γGlu-C12 diacid])CNTATCATQRLADFLRHSSNNLKPILPPTNVGSNT-{trans‑Hyp-NH2}; disulfide 2-7 (inferred))”, the Dissolution property entry is “Clear”, the Freeze storage property entry is listed as “Clear” and the Freeze storage yield was determined as 99.99%.

Regarding `CC[C@H](C)[C@H](NC(=O)[C@@H]1CCCN1C(=O)[C@H](CCCCNC(=O)CC[C@H](NC(=O)CCCCCCCCCCCCCCCCCCC(=O)O)C(=O)O)NC(=O)[C@H](CC(C)C)NC(=O)[C@H](CC(N)=O)NC(=O)[C@H](CC(N)=O)NC(=O)[C@H](CO)NC(=O)[C@H](CO)NC(=O)[C@H](Cc1c[nH]cn1)NC(=O)[C@H](CCCNC(=N)N)NC(=O)[C@H](CC(C)C)NC(=O)[C@H](Cc1ccccc1)NC(=O)[C@H](CCC(=O)O)NC(=O)[C@H](C)NC(=O)[C@H](CC(C)C)NC(=O)[C@H](CCCNC(=N)N)NC(=O)[C@H](CCC(N)=O)NC(=O)[C@@H](NC(=O)[C@H](C)NC(=O)[C@@H]1CSSC[C@H](NC(=O)[C@@H](N)CCCNC(=N)N)C(=O)N[C@@H](CC(N)=O)C(=O)N[C@@H]([C@@H](C)O)C(=O)N[C@@H](C)C(=O)N[C@@H]([C@@H](C)O)C(=O)N1)[C@@H](C)O)C(=O)N[C@@H](CC(C)C)C(=O)N1CCC[C@H]1C(=O)N1CCC[C@H]1C(=O)N[C@H](C(=O)N[C@@H](CC(N)=O)C(=O)N[C@H](C(=O)NCC(=O)N[C@@H](CO)C(=O)N[C@@H](CC(N)=O)C(=O)N[C@H](C(=O)N1CC[C@@H](N)[C@H]1C(N)=O)[C@@H](C)O)C(C)C)[C@@H](C)O` [PD061] (H-RCNTATCATQRLAEFLRHSSNNLK([γGlu-C20 diacid])PILPPTNVGSNT[X1]-NH2; disulfide 2-7; N-terminus assumed), the Dissolution property result is “Clear”, the Freeze storage property entry is “Clear” and the Freeze storage yield is 100.32%.

“PD133: KCNTATCATQRLADFLRHSSNNLGPILPPTNVGSNT-trans-Hyp-NH2; N-terminal; Trx + C20 diacid ({C20 diacid-Trx′}-KCNTATCATQRLADFLRHSSNNLGPILPPTNVGSNT-{trans‑Hyp-NH2}; disulfide 2-7 (inferred); reading uncertain; also: printed as KCNTATCATQRLADFLRHSSNNLGPILPPTNVGSNT-trans-Hyp-NH2)”: the Dissolution property entry is given as “Clear”, the Freeze storage property result is “Clear” and the Freeze storage yield is 98.24%.

“PD135: KCNTATCATQRLADFLRHSSNNLGPILPPTNVGSNT-trans-Hyp-NH2; N-terminal, 1K-ϵ; γGlu + C10 diacid ({HOOC(CH2)8CO-γGlu}-K([γGlu-HOOC(CH2)8CO])CNTATCATQRLADFLRHSSNNLGPILPPTNVGSNT-{trans‑Hyp-NH2}; disulfide 2-7 (inferred))”: the Dissolution property entry is “Clear”, the Freeze storage property result was “Clear” and the Freeze storage yield turned out to be 110.57%.

On to “PD138: KCNTATCATQRLADFLRHSSNNLGPILPPTNVGSNT-trans-Hyp-NH2; N-terminal, 1K-ϵ; γGlu + C16 diacid ({C16 diacid-γGlu}-K([γGlu-C16 diacid])CNTATCATQRLADFLRHSSNNLGPILPPTNVGSNT-{trans‑Hyp-NH2}; disulfide 2-7 (inferred))”, for which the Dissolution property result is reported as “Clear”, the Freeze storage property result is “Clear” and the Freeze storage yield was 106.03%.

Regarding “PD151: KCNTATCATQRLADFLRHSSNNLKPILPPTNVGSNT-trans-Hyp-NH2; N-terminal, 1K-ϵ; γGlu + C16 diacid ({C16 diacid-γGlu}-K([γGlu-C16 diacid])CNTATCATQRLADFLRHSSNNLKPILPPTNVGSNT-{trans‑Hyp-NH2}; disulfide 2-7 (inferred))”, the Dissolution property result is listed as “Clear”, the Freeze storage property entry was “Clear” and the Freeze storage yield amounted to 101.88%.
